Data taken from article PMC3229523, “Identification of Lactoferricin B Intracellular Targets Using an Escherichia coli Proteome Chip” (PLoS ONE, 2011).
Ends that are not written are not given here. * marks the point of attachment. Biotin = O=C1N[C@H]2[C@H](CS[C@H]2CCCCC(=O)*)N1

Experiments:
HolB = molecular target: T1, HolB (E. coli K-12, UniProt P28631 1-334); assay: peptide or protein array; E. coli proteome chip: purified His-tagged proteins printed in duplicate on Fullmoon slides, blocked with 1% BSA; 10 nM N-terminal biotinylated LfcinB with 1% BSA, room temperature, 1 h; detected with DyLight 649-labeled streptavidin, ratio to DyLight 549-labeled anti-His antibody; ProCAT normalisation, local cut-off; triplicate chips; settings: both partners purified
T1 construct: HolB, E. coli K-12
T1 sequence (P28631 whole entry): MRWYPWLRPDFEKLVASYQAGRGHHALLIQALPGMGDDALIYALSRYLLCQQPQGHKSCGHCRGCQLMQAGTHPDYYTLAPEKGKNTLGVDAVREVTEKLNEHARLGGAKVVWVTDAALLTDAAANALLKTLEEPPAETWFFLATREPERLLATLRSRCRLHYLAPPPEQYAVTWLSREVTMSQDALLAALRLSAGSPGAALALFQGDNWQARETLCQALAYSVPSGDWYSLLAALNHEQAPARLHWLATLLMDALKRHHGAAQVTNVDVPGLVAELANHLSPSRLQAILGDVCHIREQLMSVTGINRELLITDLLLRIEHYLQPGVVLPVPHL

YdiT = molecular target: T2, YdiT (E. coli K-12, UniProt P77714 1-97); assay: as above; settings: both partners purified
T2 construct: YdiT, E. coli K-12
T2 sequence (looked up): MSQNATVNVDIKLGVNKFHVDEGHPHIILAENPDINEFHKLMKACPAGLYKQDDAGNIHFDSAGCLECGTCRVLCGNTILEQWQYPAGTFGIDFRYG

B1: N-terminal biotinylated Lactoferricin B (peptide, UniProt P24627 36-60, looked up)
peptide: Biotin-FKCRRWQWRMKKLGAPSITCVRRAF
modifications: ends and bridges not checked
notes: lactoferricin B (LfcinB), cationic antimicrobial peptide of 25 amino acids; also called biotinylated LfcinB; biotin-labeled LfcinB; source: bought: Kelowna Inc
binding result (HolB): binds | binding result (YdiT): binds
